Results reported in paper PMC5261807 (2017).
Non-standard residues stand in square brackets, D forms with d. Primed or numbered codes have the meaning given here. No end group written: not given here. Me2s″ = symmetric dimethylarginine (Rme2s); Arg(Me2a) = CN(C)C(=N)NCCC[C@H](N)C(=O)O; Lys(Me3) = C[N+](C)(C)CCCC[C@H](N)C(=O)O; Arg(Me2s) = CN=C(NC)NCCC[C@H](N)C(=O)O; pT = C[C@@H](OP(=O)(O)O)[C@H](N)C(=O)O; Lys(Me2) = CN(C)CCCC[C@H](N)C(=O)O; pS = N[C@@H](COP(=O)(O)O)C(=O)O; Lys(Me) = CNCCCC[C@H](N)C(=O)O

T1: Bdf1 bromodomain 2 (GST-tagged, WT) (Saccharomyces cerevisiae (strain ATCC …, UniProt P35817))
T1 chain: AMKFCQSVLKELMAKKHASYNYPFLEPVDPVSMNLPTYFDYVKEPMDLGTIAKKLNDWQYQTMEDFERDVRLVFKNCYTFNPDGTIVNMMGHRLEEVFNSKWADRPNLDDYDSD

T2: Bdf1 bromodomain 1 (GST-tagged, WT) (Saccharomyces cerevisiae (strain ATCC …, UniProt P35817))
T2 chain: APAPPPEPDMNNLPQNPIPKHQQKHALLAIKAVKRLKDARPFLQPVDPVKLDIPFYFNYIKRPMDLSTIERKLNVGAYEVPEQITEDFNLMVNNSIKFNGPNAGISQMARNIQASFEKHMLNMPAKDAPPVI


How the values were obtained:
[1] = target: T1, Bdf1 bromodomain 2 (GST-tagged, WT); experiment: histone peptide array probed with recombinant GST-bromodomain, signal normalised to myc peptide control
[2] = target: T2, Bdf1 bromodomain 1 (GST-tagged, WT); experiment: as above

Row | Binder | binding score [1] | binding score [2]
1 | ARTKQTARKSTGGKAPRKQ (A R T Kme1 Q T A Rme2s Kme3 S T G G K A P R K Q) | 0 | 0
2 | ARTKQTARKSTGGKAPRKQ (A R T K Q T A Rme2s K S T G G K A P R K Q) | 0 | 0.00305
3 | ARTKQTARKSTGGKAPRKQ (A Rme2s T Kme2 Q T A Rme2a Kac S T G G K A P R K Q) | 0.0107 | 0.0108
4 | A[Arg(Me2a)]T[Lys(Me2)]QTA[Arg(Me2a)][Lys(Me2)]STGGKAPRKQ | 0 | 0.00126
5 | SGRGKQGGKARAK(Ac)AKSRSS [H2a 1-19] | 0.0115 | 0.00932
6 | ARTKQTARKSTGGKAPRKQ (A R T K Q T A R K pS T G G Kac A P R K Q) | 0.115 | 0.0299
7 | A[Arg(Me2s)]T[Lys(Me)]QTA[Arg(Me2s)][Lys(Me2)]STGGKAPRKQ | 0 | 0.00197
8 | ARTKQTARKSTGGKAPRKQ (A R T K Q T A R Kme3 pS T G G K A P R K Q) | 0 | 0
9 | ARTKQTA[Arg(Me2a)][Lys(Me3)]S[pT]GGKAPRKQ | 0 | 0
10 | A[Arg(Me2a)]TK(Ac)QTARK(Ac)STGGKAPRKQ | 0.0627 | 0.0911
11 | ARTKQTARKSTGGKAPRKQ (A R T K Q T A R K pS T G G K A P R K Q) | 0 | 0
12 | ARTKQTARKSTGGKAPRKQ (A Rme2s T Kac Q T A Rme2s K S T G G K A P R K Q) | 0.00876 | 0
13 | A[Arg(Me2a)]T[Lys(Me2)]QTA[Arg(Me2s)][Lys(Me3)]STGGKAPRKQ | 0 | 0.0167
14 | ARTKQTARKSTGGKAPRKQ (A R T K Q T A R Kac pS T G G K A P R K Q) | 0 | 0
15 | A[Arg(Me2s)]T[Lys(Me3)]QTA[Arg(Me2a)][Lys(Me)]STGGKAPRKQ | 0 | 0

Results, then the binder that gave them:

Row | binding score [1] | binding score [2] | Binder
16 | 0 | 0.00646 | SGRGKGGKGLGKGGAKRHR (S G Rme2s G K G G K G L G K G G A K R H R)
17 | 0.0271 | 0.00448 | SGRGKGGKGLGKGGAKRHR (S G R G K G G K G L G Kac G G A K R H R)
18 | 0 | 0 | PRKQLATKAAR(Me2s″)K[pS]APATGG
19 | 0 | 0.017 | PRKQLATKAA[Arg(Me2s)][Lys(Me2)][pS]APATGG
20 | 0.206 | 0.0927 | SGRGKGGKGLGKGGAKRHR (pS G Rme2a G Kac G G Kac G L G K G G A K R H R)
21 | 0 | 0 | PRKQLATKAAR[Lys(Me)]SAPATGG
22 | 0.605 | 0.391 | SGRGKGGKGLGKGGAKRHR (S G Rme2s G Kac G G Kac G L G Kac G G A K R H R)
23 | 0.0479 | 0.0133 | ARTKQTARKSTGGKAPRKQ (A R T K Q T A R Kme3 S T G G Kac A P R K Q)
24 | 0.00148 | 0.0242 | ARTK(Ac)QTA[Arg(Me2s)][Lys(Me)]STGGKAPRKQ
25 | 0.00758 | 0.00628 | ARTKQTARKSTGGKAPRKQ (A Rme2a T Kme3 Q T A R Kac S T G G K A P R K Q)
26 | 0 | 0.00538 | ARTKQTARKSTGGKAPRKQ (A R T Kme3 Q T A Rme2a Kme3 S T G G K A P R K Q)
27 | 0 | 0.00323 | ARTKQTARKSTGGKAPRKQ (A R T K Q T A Rme2a Kme2 S pT G G K A P R K Q)
28 | 0.00207 | 0.00412 | A[Arg(Me2a)][pT]K(Me)QTARKSTGGKAPRKQ
29 | 0 | 0.0151 | PRKQLATKAARK(Me)[pS]APATGG
